Laboratory results published in article PMC9242648.

T1: human regulatory light chain (MYL2), P10916
T1 chain: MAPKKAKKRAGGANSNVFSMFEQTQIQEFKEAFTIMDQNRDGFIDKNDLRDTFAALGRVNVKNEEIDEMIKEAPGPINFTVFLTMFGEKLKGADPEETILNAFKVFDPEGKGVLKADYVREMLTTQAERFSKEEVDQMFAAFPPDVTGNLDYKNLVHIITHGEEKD


Key:
[1] = molecular target: human essential light chain (MYL3), P08590; assay: Coomassie SDS-PAGE gel-based light chain loading assay; details: chain shown with the change;; read off a plot
[2] = molecular target: T1, human regulatory light chain (MYL2), …; assay: as above; details: chain shown with the change;; read off a plot

Sequence of human essential light chain (MYL3), P08590 (P08590 whole entry): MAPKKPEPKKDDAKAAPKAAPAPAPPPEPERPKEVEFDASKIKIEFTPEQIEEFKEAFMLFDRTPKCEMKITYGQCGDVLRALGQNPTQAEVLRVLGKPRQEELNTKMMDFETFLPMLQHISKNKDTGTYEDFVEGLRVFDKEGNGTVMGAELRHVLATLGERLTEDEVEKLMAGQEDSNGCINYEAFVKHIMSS

Binder | ratio to parent [1] | ratio to parent [2]
human β-cardiac myosin 2-hep heavy chain, wild type A797T (protein) MGDSEMAVFGAAAPYLRKSEKERLEAQTRPFDLKKDVFVPDDKQEFVKAKIVSREGGKVTAETEYGKTVTVKEDQVMQQNPPKFDKIEDMAMLTFLHEPAVLYNLKDRYGSWMIYTYSGLFCVTVNPYKWLPVYTPEVVAAYRGKKRSEAPPHIFSISDNAYQYMLTDRENQSILITGESGAGKTVNTKRVIQYFAVIAAIGDRSKKDQSPGKGTLEDQIIQANPALEAFGNAKTVRNDNSSRFGKFIRIHFGATGKLASADIETYLLEKSRVIFQLKAERDYHIFYQILSNKKPELLDMLLITNNPYDYAFISQGETTVASIDDAEELMATDNAFDVLGFTSEEKNSMYKLTGAIMHFGNMKFKLKQREEQAEPDGTEEADKSAYLMGLNSADLLKGLCHPRVKVGNEYVTKGQNVQQVIYATGALAKAVYERMFNWMVTRINATLETKQPRQYFIGVLDIAGFEIFDFNSFEQLCINFTNEKLQQFFNHHMFVLEQEEYKKEGIEWTFIDFGMDLQACIDLIEKPMGIMSILEEECMFPKATDMTFKAKLFDNHLGKSANFQKPRNIKGKPEAHFSLIHYAGIVDYNIIGWLQKNKDPLNETVVGLYQKSSLKLLSTLFANYAGADAPIEKGKGKAKKGSSFQTVSALHRENLNKLMTNLRSTHPHFVRCIIPNETKSPGVMDNPLVMHQLRCNGVLEGIRICRKGFPNRILYGDFRQRYRILNPAAIPEGQFIDSRKGAEKLLSSLDIDHNQYKFGHTKVFFKAGLLGLLEEMRDERLSRIITRIQAQSRGVLTRMEYKKLLERRDSLLVIQWNIRAFMGVKNWPWMKLYFKIKPLLKSAEREKEMASMKEELEDKVEELLSKNYHLENEVARL | 0.96 | 0.97
human β-cardiac myosin 2-hep heavy chain, wild type F834L (protein) MGDSEMAVFGAAAPYLRKSEKERLEAQTRPFDLKKDVFVPDDKQEFVKAKIVSREGGKVTAETEYGKTVTVKEDQVMQQNPPKFDKIEDMAMLTFLHEPAVLYNLKDRYGSWMIYTYSGLFCVTVNPYKWLPVYTPEVVAAYRGKKRSEAPPHIFSISDNAYQYMLTDRENQSILITGESGAGKTVNTKRVIQYFAVIAAIGDRSKKDQSPGKGTLEDQIIQANPALEAFGNAKTVRNDNSSRFGKFIRIHFGATGKLASADIETYLLEKSRVIFQLKAERDYHIFYQILSNKKPELLDMLLITNNPYDYAFISQGETTVASIDDAEELMATDNAFDVLGFTSEEKNSMYKLTGAIMHFGNMKFKLKQREEQAEPDGTEEADKSAYLMGLNSADLLKGLCHPRVKVGNEYVTKGQNVQQVIYATGALAKAVYERMFNWMVTRINATLETKQPRQYFIGVLDIAGFEIFDFNSFEQLCINFTNEKLQQFFNHHMFVLEQEEYKKEGIEWTFIDFGMDLQACIDLIEKPMGIMSILEEECMFPKATDMTFKAKLFDNHLGKSANFQKPRNIKGKPEAHFSLIHYAGIVDYNIIGWLQKNKDPLNETVVGLYQKSSLKLLSTLFANYAGADAPIEKGKGKAKKGSSFQTVSALHRENLNKLMTNLRSTHPHFVRCIIPNETKSPGVMDNPLVMHQLRCNGVLEGIRICRKGFPNRILYGDFRQRYRILNPAAIPEGQFIDSRKGAEKLLSSLDIDHNQYKFGHTKVFFKAGLLGLLEEMRDERLSRIITRIQAQSRGVLARMEYKKLLERRDSLLVIQWNIRAFMGVKNWPWMKLYLKIKPLLKSAEREKEMASMKEELEDKVEELLSKNYHLENEVARL | 1 | 1.1
human β-cardiac myosin 2-hep heavy chain, wild type S782N (protein) MGDSEMAVFGAAAPYLRKSEKERLEAQTRPFDLKKDVFVPDDKQEFVKAKIVSREGGKVTAETEYGKTVTVKEDQVMQQNPPKFDKIEDMAMLTFLHEPAVLYNLKDRYGSWMIYTYSGLFCVTVNPYKWLPVYTPEVVAAYRGKKRSEAPPHIFSISDNAYQYMLTDRENQSILITGESGAGKTVNTKRVIQYFAVIAAIGDRSKKDQSPGKGTLEDQIIQANPALEAFGNAKTVRNDNSSRFGKFIRIHFGATGKLASADIETYLLEKSRVIFQLKAERDYHIFYQILSNKKPELLDMLLITNNPYDYAFISQGETTVASIDDAEELMATDNAFDVLGFTSEEKNSMYKLTGAIMHFGNMKFKLKQREEQAEPDGTEEADKSAYLMGLNSADLLKGLCHPRVKVGNEYVTKGQNVQQVIYATGALAKAVYERMFNWMVTRINATLETKQPRQYFIGVLDIAGFEIFDFNSFEQLCINFTNEKLQQFFNHHMFVLEQEEYKKEGIEWTFIDFGMDLQACIDLIEKPMGIMSILEEECMFPKATDMTFKAKLFDNHLGKSANFQKPRNIKGKPEAHFSLIHYAGIVDYNIIGWLQKNKDPLNETVVGLYQKSSLKLLSTLFANYAGADAPIEKGKGKAKKGSSFQTVSALHRENLNKLMTNLRSTHPHFVRCIIPNETKSPGVMDNPLVMHQLRCNGVLEGIRICRKGFPNRILYGDFRQRYRILNPAAIPEGQFIDSRKGAEKLLSSLDIDHNQYKFGHTKVFFKAGLLGLLEEMRDERLNRIITRIQAQSRGVLARMEYKKLLERRDSLLVIQWNIRAFMGVKNWPWMKLYFKIKPLLKSAEREKEMASMKEELEDKVEELLSKNYHLENEVARL | 1.1 | 1.2
